Data from US20250327097A1, “ORGANISMS PRODUCING LESS CROTONIC ACID” (Global Bioenergies, priority 2021, published 2025).

B1: K391I-L432W-L434M (protein)
chain: MFLKSLREQINLLKRQGDLRIINRPVDSYLEAAAIIRRSTETKAPVPLMTNIKGYPGCSIVGGLAALSSNPEYPLSRVAMSLGLSTTASAQSIVQYLIDGLKKTPYLPVEIDSNSAPCKQNILRGEDASLAHFPIPQVHQHDGNRYVNTWGVFIVESPDGQWCNWSIQRVQYLNDRQMIALVFPSQHISDIWEEWVKIGKPMPYALVQGCEPIVPYIAGLPLLERNVNEAEYIGALYGKGIEVVKCETHDLRVPASSEVVIEGYFAITREGVEGPFGEFAGYIPNENSLQPILSITAISWQDDPIWPVVAEGKPVDEYHTCSGIGDAAAIQNVLLTANLPVSFVWVPLYSACHLMIVSINRHWRQTHPDLTSEQLTKKVGDVIHQTRNSIILPKIVVLDDDVDPADTESLLWALATRIHPERKRYFYESCIWPMLSCYSEEERHNRKGKRVIIDALLPENHGAISSFDYAYPDDIKQRVLMHWETDFSHD
B2: K394R-L432F-L434W-S436A (protein)
chain: MFLKSLREQINLLKRQGDLRIINRPVDSYLEAAAIIRRSTETKAPVPLMTNIKGYPGCSIVGGLAALSSNPEYPLSRVAMSLGLSTTASAQSIVQYLIDGLKKTPYLPVEIDSNSAPCKQNILRGEDASLAHFPIPQVHQHDGNRYVNTWGVFIVESPDGQWCNWSIQRVQYLNDRQMIALVFPSQHISDIWEEWVKIGKPMPYALVQGCEPIVPYIAGLPLLERNVNEAEYIGALYGKGIEVVKCETHDLRVPASSEVVIEGYFAITREGVEGPFGEFAGYIPNENSLQPILSITAISWQDDPIWPVVAEGKPVDEYHTCSGIGDAAAIQNVLLTANLPVSFVWVPLYSACHLMIVSINRHWRQTHPDLTSEQLTKKVGDVIHQTRNSIKLPRIVVLDDDVDPADTESLLWALATRIHPERKRYFYESCIFPWLACYSEEERHNRKGKRVIIDALLPENHGAISSFDYAYPDDIKQRVLMHWETDFSHD
B3: N388M-L432F-L434W-S436A (protein)
chain: MFLKSLREQINLLKRQGDLRIINRPVDSYLEAAAIIRRSTETKAPVPLMTNIKGYPGCSIVGGLAALSSNPEYPLSRVAMSLGLSTTASAQSIVQYLIDGLKKTPYLPVEIDSNSAPCKQNILRGEDASLAHFPIPQVHQHDGNRYVNTWGVFIVESPDGQWCNWSIQRVQYLNDRQMIALVFPSQHISDIWEEWVKIGKPMPYALVQGCEPIVPYIAGLPLLERNVNEAEYIGALYGKGIEVVKCETHDLRVPASSEVVIEGYFAITREGVEGPFGEFAGYIPNENSLQPILSITAISWQDDPIWPVVAEGKPVDEYHTCSGIGDAAAIQNVLLTANLPVSFVWVPLYSACHLMIVSINRHWRQTHPDLTSEQLTKKVGDVIHQTRMSIKLPKIVVLDDDVDPADTESLLWALATRIHPERKRYFYESCIFPWLACYSEEERHNRKGKRVIIDALLPENHGAISSFDYAYPDDIKQRVLMHWETDFSHD
B4: L432F-L434W-S436N (protein)
chain: MFLKSLREQINLLKRQGDLRIINRPVDSYLEAAAIIRRSTETKAPVPLMTNIKGYPGCSIVGGLAALSSNPEYPLSRVAMSLGLSTTASAQSIVQYLIDGLKKTPYLPVEIDSNSAPCKQNILRGEDASLAHFPIPQVHQHDGNRYVNTWGVFIVESPDGQWCNWSIQRVQYLNDRQMIALVFPSQHISDIWEEWVKIGKPMPYALVQGCEPIVPYIAGLPLLERNVNEAEYIGALYGKGIEVVKCETHDLRVPASSEVVIEGYFAITREGVEGPFGEFAGYIPNENSLQPILSITAISWQDDPIWPVVAEGKPVDEYHTCSGIGDAAAIQNVLLTANLPVSFVWVPLYSACHLMIVSINRHWRQTHPDLTSEQLTKKVGDVIHQTRNSIKLPKIVVLDDDVDPADTESLLWALATRIHPERKRYFYESCIFPWLNCYSEEERHNRKGKRVIIDALLPENHGAISSFDYAYPDDIKQRVLMHWETDFSHD
B5: R387A-L432F-L434W-S436A (protein)
chain: MFLKSLREQINLLKRQGDLRIINRPVDSYLEAAAIIRRSTETKAPVPLMTNIKGYPGCSIVGGLAALSSNPEYPLSRVAMSLGLSTTASAQSIVQYLIDGLKKTPYLPVEIDSNSAPCKQNILRGEDASLAHFPIPQVHQHDGNRYVNTWGVFIVESPDGQWCNWSIQRVQYLNDRQMIALVFPSQHISDIWEEWVKIGKPMPYALVQGCEPIVPYIAGLPLLERNVNEAEYIGALYGKGIEVVKCETHDLRVPASSEVVIEGYFAITREGVEGPFGEFAGYIPNENSLQPILSITAISWQDDPIWPVVAEGKPVDEYHTCSGIGDAAAIQNVLLTANLPVSFVWVPLYSACHLMIVSINRHWRQTHPDLTSEQLTKKVGDVIHQTANSIKLPKIVVLDDDVDPADTESLLWALATRIHPERKRYFYESCIFPWLACYSEEERHNRKGKRVIIDALLPENHGAISSFDYAYPDDIKQRVLMHWETDFSHD
B6: C430P-L432F-L434W-S436A (protein)
chain: MFLKSLREQINLLKRQGDLRIINRPVDSYLEAAAIIRRSTETKAPVPLMTNIKGYPGCSIVGGLAALSSNPEYPLSRVAMSLGLSTTASAQSIVQYLIDGLKKTPYLPVEIDSNSAPCKQNILRGEDASLAHFPIPQVHQHDGNRYVNTWGVFIVESPDGQWCNWSIQRVQYLNDRQMIALVFPSQHISDIWEEWVKIGKPMPYALVQGCEPIVPYIAGLPLLERNVNEAEYIGALYGKGIEVVKCETHDLRVPASSEVVIEGYFAITREGVEGPFGEFAGYIPNENSLQPILSITAISWQDDPIWPVVAEGKPVDEYHTCSGIGDAAAIQNVLLTANLPVSFVWVPLYSACHLMIVSINRHWRQTHPDLTSEQLTKKVGDVIHQTRNSIKLPKIVVLDDDVDPADTESLLWALATRIHPERKRYFYESPIFPWLACYSEEERHNRKGKRVIIDALLPENHGAISSFDYAYPDDIKQRVLMHWETDFSHD
B7: L432F-L434W-S436A (protein)
chain: MFLKSLREQINLLKRQGDLRIINRPVDSYLEAAAIIRRSTETKAPVPLMTNIKGYPGCSIVGGLAALSSNPEYPLSRVAMSLGLSTTASAQSIVQYLIDGLKKTPYLPVEIDSNSAPCKQNILRGEDASLAHFPIPQVHQHDGNRYVNTWGVFIVESPDGQWCNWSIQRVQYLNDRQMIALVFPSQHISDIWEEWVKIGKPMPYALVQGCEPIVPYIAGLPLLERNVNEAEYIGALYGKGIEVVKCETHDLRVPASSEVVIEGYFAITREGVEGPFGEFAGYIPNENSLQPILSITAISWQDDPIWPVVAEGKPVDEYHTCSGIGDAAAIQNVLLTANLPVSFVWVPLYSACHLMIVSINRHWRQTHPDLTSEQLTKKVGDVIHQTRNSIKLPKIVVLDDDVDPADTESLLWALATRIHPERKRYFYESCIFPWLACYSEEERHNRKGKRVIIDALLPENHGAISSFDYAYPDDIKQRVLMHWETDFSHD
B8: N388M-L432F-L434W (protein)
chain: MFLKSLREQINLLKRQGDLRIINRPVDSYLEAAAIIRRSTETKAPVPLMTNIKGYPGCSIVGGLAALSSNPEYPLSRVAMSLGLSTTASAQSIVQYLIDGLKKTPYLPVEIDSNSAPCKQNILRGEDASLAHFPIPQVHQHDGNRYVNTWGVFIVESPDGQWCNWSIQRVQYLNDRQMIALVFPSQHISDIWEEWVKIGKPMPYALVQGCEPIVPYIAGLPLLERNVNEAEYIGALYGKGIEVVKCETHDLRVPASSEVVIEGYFAITREGVEGPFGEFAGYIPNENSLQPILSITAISWQDDPIWPVVAEGKPVDEYHTCSGIGDAAAIQNVLLTANLPVSFVWVPLYSACHLMIVSINRHWRQTHPDLTSEQLTKKVGDVIHQTRMSIKLPKIVVLDDDVDPADTESLLWALATRIHPERKRYFYESCIFPWLSCYSEEERHNRKGKRVIIDALLPENHGAISSFDYAYPDDIKQRVLMHWETDFSHD
B9: K394R-L432F-L434W (protein)
chain: MFLKSLREQINLLKRQGDLRIINRPVDSYLEAAAIIRRSTETKAPVPLMTNIKGYPGCSIVGGLAALSSNPEYPLSRVAMSLGLSTTASAQSIVQYLIDGLKKTPYLPVEIDSNSAPCKQNILRGEDASLAHFPIPQVHQHDGNRYVNTWGVFIVESPDGQWCNWSIQRVQYLNDRQMIALVFPSQHISDIWEEWVKIGKPMPYALVQGCEPIVPYIAGLPLLERNVNEAEYIGALYGKGIEVVKCETHDLRVPASSEVVIEGYFAITREGVEGPFGEFAGYIPNENSLQPILSITAISWQDDPIWPVVAEGKPVDEYHTCSGIGDAAAIQNVLLTANLPVSFVWVPLYSACHLMIVSINRHWRQTHPDLTSEQLTKKVGDVIHQTRNSIKLPRIVVLDDDVDPADTESLLWALATRIHPERKRYFYESCIFPWLSCYSEEERHNRKGKRVIIDALLPENHGAISSFDYAYPDDIKQRVLMHWETDFSHD
B10: C430S-L432F-L434W-S436A (protein)
chain: MFLKSLREQINLLKRQGDLRIINRPVDSYLEAAAIIRRSTETKAPVPLMTNIKGYPGCSIVGGLAALSSNPEYPLSRVAMSLGLSTTASAQSIVQYLIDGLKKTPYLPVEIDSNSAPCKQNILRGEDASLAHFPIPQVHQHDGNRYVNTWGVFIVESPDGQWCNWSIQRVQYLNDRQMIALVFPSQHISDIWEEWVKIGKPMPYALVQGCEPIVPYIAGLPLLERNVNEAEYIGALYGKGIEVVKCETHDLRVPASSEVVIEGYFAITREGVEGPFGEFAGYIPNENSLQPILSITAISWQDDPIWPVVAEGKPVDEYHTCSGIGDAAAIQNVLLTANLPVSFVWVPLYSACHLMIVSINRHWRQTHPDLTSEQLTKKVGDVIHQTRNSIKLPKIVVLDDDVDPADTESLLWALATRIHPERKRYFYESSIFPWLACYSEEERHNRKGKRVIIDALLPENHGAISSFDYAYPDDIKQRVLMHWETDFSHD
B11: C430S-L432F-L434W (protein)
chain: MFLKSLREQINLLKRQGDLRIINRPVDSYLEAAAIIRRSTETKAPVPLMTNIKGYPGCSIVGGLAALSSNPEYPLSRVAMSLGLSTTASAQSIVQYLIDGLKKTPYLPVEIDSNSAPCKQNILRGEDASLAHFPIPQVHQHDGNRYVNTWGVFIVESPDGQWCNWSIQRVQYLNDRQMIALVFPSQHISDIWEEWVKIGKPMPYALVQGCEPIVPYIAGLPLLERNVNEAEYIGALYGKGIEVVKCETHDLRVPASSEVVIEGYFAITREGVEGPFGEFAGYIPNENSLQPILSITAISWQDDPIWPVVAEGKPVDEYHTCSGIGDAAAIQNVLLTANLPVSFVWVPLYSACHLMIVSINRHWRQTHPDLTSEQLTKKVGDVIHQTRNSIKLPKIVVLDDDVDPADTESLLWALATRIHPERKRYFYESSIFPWLSCYSEEERHNRKGKRVIIDALLPENHGAISSFDYAYPDDIKQRVLMHWETDFSHD

Each molecule was assayed on 3-methylcrotonic acid.
Type: biochemical, Yersinia frederiksenii
Set-up: key: “+” representing a low increase in activity; “++++” representing a high increase in activity
For B1, the “Activity relative to WT” value was “+”. In the case of B2, the “Activity relative to WT” value is reported as “+”. For B3, the “Activity relative to WT” value was “+”. With B4 the “Activity relative to WT” value was “+”. B5 was tested, and the “Activity relative to WT” value was “+”. In the case of B6, the “Activity relative to WT” value is reported as “+”. In the case of B7, the “Activity relative to WT” value is reported as “+”. For B8, the “Activity relative to WT” value was “+”. With B9 the “Activity relative to WT” value was “+”. In the case of B10, the “Activity relative to WT” value is reported as “+”. With B11 the “Activity relative to WT” value was “+”.
